Laboratory results taken from patent US20260217797A1.
Like-named read-outs stand apart in the source and are kept apart here.

Assays:
[1] = target: SARS-CoV-2 wild type spike protein (on reporter virus particles) (SARS-CoV-2) (UniProt P0DTC2); assay: cell-based or functional assay
[2] = target: SARS-CoV-2 WT RBD (SARS-CoV-2) (UniProt P0DTC2); assay: Octet BLI single point, monovalent
[3] = target: SARS-CoV-2 wild type spike protein (on reporter virus particles) (SARS-CoV-2) (UniProt P0DTC2); assay: cell-based or functional assay; remark: listed apart in the source
[4] = target: Bat coronavirus WIV16 spike protein (Bat coronavirus WIV16); assay: cell-based or functional assay
[5] = target: SARS-CoV-1 spike protein (SARS-CoV-1) (UniProt P59594); assay: cell-based or functional assay

Substance	PSV IC50 [1] [µg/L]	PsV neutralization IC50 [1] [ng/mL]	PsV neutralization IC90 [1] [µg/mL]	SARS2 IC50 [1] [pM]	WT PsV IC50 [1] [pM]	Kd [2] [nM]	PsV neutralization IC50 [3] [ng/mL]	PsV neutralization IC90 [3] [µg/mL]	PsV neutralization IC50 [4] [µg/mL]	PsV neutralization IC90 [4] [µg/mL]	PsV neutralization IC50 [5] [µg/mL]	PsV neutralization IC90 [5] [µg/mL]
RGN10933 (antibody)	28	6.7	0.081	22	185	3.62	2	0.024	–	–	–	–
RGN10987 (antibody)	31	–	–	–	292	9.13	7	0.078	–	–	–	–
S309 (antibody)	–	–	–	–	6560	–	9	0.051	0.016	0.305	0.01	0.043
